Among the data in paper PMC6393540, “A dual role in regulation and toxicity for the disordered N-terminus of the toxin GraT” are Ka values, retold here.

The target of this data set is Δ22GraT in Δ22GraT2A2 complex;GraA-His in Δ22GraT2A2 complex (Pseudomonas putida;Pseudomonas putida, UniProt Q88MI5;Q88MI6 23-92;1-99, del2-22|). As to the kind of experiment: ITC; macroscopic; ITC: 50 mM Tris pH 8.0, 250 mM NaCl, 2 mM β-mercaptoethanol (TCEP in purification for ITC), 25 °C; EMSA: 5 µM DNA, 30 min at room temperature, 6% native PAGE in TBE on ice. The conditions noted are these: protein: recombinant;recombinant; tags: ;C-terminal His6; chain copies: 2;2.

B1: graTA operator wild type 33 bp (dsDNA)
DNA 1: AAATTAACGAATAACGTTAAGCATTCAGCTCAT
DNA 2: ATGAGCTGAATGCTTAACGTTATTCGTTAATTT
For the molecule B1, the Ka was 2.3e+15 M^-2.
